Consider one substance from patent publication US5624899.

The target in the test is murine Htk ligand (murine). Description: steady-state competition of 125I-Htk-Fc with unlabelled Htk-Fc on SV40MES 13 cells, Scatchard analysis.

In general, Kd refers to the equilibrium constant for the complex coming apart. Read a low Kd as tighter binding. In the case of soluble Htk receptor-Fc fusion protein, the Kd was 3 nM.
